# Data from patent publication US20220241369A1, “COMPOSITIONS AND METHODS OF MODULATING INFLAMMATION” (La Jolla Institute for Allergy and Immunology, priority 2018, published 2022).
# B1: HRF-2CA-His6, a monomeric mutant of mouse HRF (protein)
# chain: MIIYRDLISHDELFSDIYKIREIADGLALEVEGKMVSRTEGAIDDSLIGGNASAEGPEGEGTESTVVTGVDIVMNHHLQETSFTKEAYKKYIKDYMKSLKGKLEEQKPERVKPFMTGAAEQIKHILANFNNYQFFIGENMNPDGMVALLDYREDGVTPFMIFFKDGLEMEKAHHHHHH
# Test system: c-Kit+ mucosal mast cells of the small intestine
# Experiment: Ex vivo mast cell activation test (MCAT)
# Assay type: cell-based, mouse
# Conditions: cells from allergic mice, HRF-2CA 300 μg/ml
# Procedure: FIGS. 2A-2C show mucosal mast cells can be activated ex vivo by antigen. Cells were released with EDTA from small intestines of non-sensitized/OVA challenged (Cont) or OVA-sensitized/OVA-challenged (OVA) mice, and mononuclear cells were selected. The cells were incubated for 15 min at 37° C. with OVA or anti-IgE antibody, and activation of Kit^+ mast cells was measured by flow cytometry (FIG. 2A, FIG. 2B). **, ***: p<0.01, p<0.001 by Student's t-test. (n=2; a representative of 2 independent experiments) (FIG. 2C) Mucosal cells derived from OVA-sensitized/OVA-challenged mice were stimulated with PBS (n=4), OVA (10 ng/ml, n=4) or HRF dimer (100 μg/ml, n=2) in the presence or absence of HRF-2CA (300 μg/ml).
# FIGS. 11A-11C show HRF dimer, but not monomer can activate mast cells. (FIG. 11A) Purified dimeric and monomeric HRF expressed in E. coli. Recombinant HRF-[…] was purified first by Histrap HP and then Sephacryl S-200 HR16/60. Two peaks were observed by Sephacryl size fractionation. The first (Fr1) and second (Fr3) peaks contained dimer and monomer, respectively, as shown by SDS-PAGE. Fr1 and Fr3 were used for mast cell stimulation. (FIG. 11B) Cells were released with 10 mM EDTA from small intestines of OVA-sensitized/OVA-challenged mice, and mononuclear cells were selected. The cells were incubated for 15 min at 37° C. with mHRF monomer or dimer (100 μg/ml), or PBS, and Kit^+ mast cell activation (LAMP-1^+) was measured by flow cytometry (n=3). (FIG. 11C) Control experiments indicate an excellent specificity of the assay for HRF multimers. HRF-2CA (2CA) was used as a monomer control (n=2 for each concentration). Note that total concentrations of the 1:9 mixture of dimer:monomer gave almost the same luminescence values as did ten-fold less concentrations of dimer.
# Twenty-four hours after the last OVA challenge, mice were sacrificed and small intestines (0.5-15 cm from stomach) were collected. The intestinal tissues were opened longitudinally and washed with PBS. Then, the tissues were incubated with 10 mM EDTA-PBS for 30 min at 37° C. After incubation, the tissues were transferred to 30 ml PBS in 50 ml tubes and vigorously shaken. After washed, the cells were resuspended in 40% Percoll solution and slowly loaded on the top of 75% Percoll solution. The cells were then centrifuged (2000 rpm, 20 min) and lymphocytes were collected. The cells were once centrifuged and resuspended in Tyrode's buffer. Abs (Biotin-anti-CD4 mAb (clone RM4-5), Biotin-anti-CD8 mAb (clone 53-6.7), Biotin-anti-B220 mAb (clone RA3-6B2), Biotin-anti-CD326 mAb (clone G8.8), PE-anti-CD117 (clone 2B8), AlexaFluor647-anti-LAMP-1 mAb (clone 1D4B)) (Biolegend) were added and cells were then stimulated with OVA, anti-IgE (clone RME-1, BioLegend) and recombinant dimeric murine HRF for 15 min at 37° C. After activation, cells were washed and incubated with FITC-streptavidin (Catalog #405202, Biolegend) for 30 min at 4° C. LAMP-1 expression was detected using FACS Calibur. Data were analyzed using FlowJo software.
molecule,measurement,setting,value
B1,HRF-induced activation of mucosal mast cells,HRF dimer 100 μg/ml,significantly suppressed
same,OVA-induced activation of mucosal mast cells,OVA 10 ng/ml,significantly suppressed
